# Tests used:
# [1] = target: type-L calcium channels, verapamil site (rat cerebral cortex homogenates) (rat); assay: inhibition of specific binding of (3H)(-)D 888 by 5% Argireline; rat cerebral cortex membranes
# [2] = target: type-L calcium channels, verapamil site (rat cerebral cortex homogenates) (rat); assay: inhibition of specific binding of (3H)(-)D 888 by 10% Argireline; rat cerebral cortex membranes
# [3] = target: type-L calcium channels, verapamil site (rat cerebral cortex homogenates) (rat); assay: specific binding of 0.5 nM (3H)(-)D 888 left with 1.0% Argireline; rat cerebral cortex membranes, scintillation counting
# [4] = target: type-L calcium channels, verapamil site (rat cerebral cortex homogenates) (rat); assay: inhibition of specific binding of 0.5 nM (3H)(-)D 888 by 1.0% Argireline; rat cerebral cortex membranes, scintillation counting
# [5] = target: type-L calcium channels, verapamil site (rat cerebral cortex homogenates) (rat); assay: specific binding of 0.5 nM (3H)(-)D 888 left with 1.0% Argireline; rat cerebral cortex membranes, scintillation counting; replicate 1
# [6] = target: type-L calcium channels, verapamil site (rat cerebral cortex homogenates) (rat); assay: specific binding of 0.5 nM (3H)(-)D 888 left with 1.0% Argireline; rat cerebral cortex membranes, scintillation counting; replicate 2
# [7] = target: type-L calcium channels, verapamil site (rat cerebral cortex homogenates) (rat); assay: specific binding of 0.5 nM (3H)(-)D 888 left with 1.0% Argireline; rat cerebral cortex membranes, scintillation counting; replicate 3
# [8] = target: type-L calcium channels, verapamil site (rat cerebral cortex homogenates) (rat); assay: specific binding of 0.5 nM (3H)(-)D 888 left with the MIXTURE of 1.0% Argireline and 1 x 10^-4 M magnesium gluconate; rat cerebral cortex membranes
# [9] = target: type-L calcium channels, verapamil site (rat cerebral cortex homogenates) (rat); assay: inhibition of specific binding of 0.5 nM (3H)(-)D 888 by the MIXTURE of 1.0% Argireline and 1 x 10^-4 M magnesium gluconate; rat cerebral cortex membranes
# [10] = target: type-L calcium channels, verapamil site (rat cerebral cortex homogenates) (rat); assay: specific binding of 0.5 nM (3H)(-)D 888 left with the MIXTURE of 1.0% Argireline and 1 x 10^-4 M magnesium gluconate; rat cerebral cortex membranes; replicate 1
# [11] = target: type-L calcium channels, verapamil site (rat cerebral cortex homogenates) (rat); assay: specific binding of 0.5 nM (3H)(-)D 888 left with the MIXTURE of 1.0% Argireline and 1 x 10^-4 M magnesium gluconate; rat cerebral cortex membranes; replicate 2
# [12] = target: type-L calcium channels, verapamil site (rat cerebral cortex homogenates) (rat); assay: specific binding of 0.5 nM (3H)(-)D 888 left with the MIXTURE of 1.0% Argireline and 1 x 10^-4 M magnesium gluconate; rat cerebral cortex membranes; replicate 3
binder,measurement,setting,value
Ac-EEMQRR-NH2,mean percentage of inhibition,[1],36%
same,mean percentage of inhibition,[2],52%
same,Mean % of binding,[3],96.1%
same,Mean % of inhibition,[4],4%
same,% of binding,[5],95.1%
same,% of binding,[6],93.1%
same,% of binding,[7],99.9%
same,Mean % of binding,[8],84%
same,Mean % of inhibition,[9],16%
same,% of binding,[10],81.6%
same,% of binding,[11],85.3%
same,% of binding,[12],85.1%

# From patent US20040147443A1
